Assays:
Assay in all cases: Kinase Profiling Assay
Assay type in all cases: biochemical
Details in all cases: 100 μM peptide
GSK3β(h) = biological target: T1, GSK3β(h) (Homo sapiens, UniProt P49841)
T1 construct: purchased Millipore
How it was run: (§1)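 Off-target screen of MK2 peptide inhibitors, 266 human kinases, n = 2 per activity measurement.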

CDK2/cyclinE(h) = CDK2/cyclinE(h) (Homo sapiens, UniProt P24941)
How it was run: as §1

F1t3(h) = F1t3(h) (Homo sapiens, UniProt P36888)
How it was run: as §1

MARK1(h) = MARK1(h) (Homo sapiens, UniProt Q9P0L2)
How it was run: as §1

CDK9/cyclin T1(h) = CDK9/cyclin T1(h) (Homo sapiens, UniProt P50750)
How it was run: as §1

Src(1-530)(h) = biological target: T2, Src(1-530)(h) (Homo sapiens, UniProt P12931)
T2 construct: Src(1-530)
How it was run: as §1

Plk3(h) = biological target: T3, Plk3(h) (Homo sapiens, UniProt Q9H4B4)
T3 construct: purchased Millipore (IC50 Profiler Express service)
T3 sequence (Q9H4B4 whole entry): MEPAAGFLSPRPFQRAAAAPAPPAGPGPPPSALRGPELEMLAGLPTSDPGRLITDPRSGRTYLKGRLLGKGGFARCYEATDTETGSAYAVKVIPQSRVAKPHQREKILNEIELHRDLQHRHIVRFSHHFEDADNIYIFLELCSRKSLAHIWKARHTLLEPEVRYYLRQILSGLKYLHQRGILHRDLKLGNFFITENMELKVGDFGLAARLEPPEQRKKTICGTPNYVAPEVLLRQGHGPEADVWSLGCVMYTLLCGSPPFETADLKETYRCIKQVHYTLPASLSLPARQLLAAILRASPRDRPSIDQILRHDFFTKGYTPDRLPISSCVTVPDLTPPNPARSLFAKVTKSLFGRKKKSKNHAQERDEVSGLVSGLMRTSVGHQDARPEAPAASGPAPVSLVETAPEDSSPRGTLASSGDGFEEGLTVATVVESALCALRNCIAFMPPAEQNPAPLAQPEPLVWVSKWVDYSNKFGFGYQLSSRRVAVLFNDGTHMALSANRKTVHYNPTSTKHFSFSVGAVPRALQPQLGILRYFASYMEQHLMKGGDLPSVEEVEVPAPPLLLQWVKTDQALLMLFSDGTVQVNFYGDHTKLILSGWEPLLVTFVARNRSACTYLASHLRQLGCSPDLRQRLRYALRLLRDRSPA
How it was run: as §1

Haspin(h) = biological target: T4, Haspin(h) (Homo sapiens, UniProt Q8TF76)
T4 construct: purchased Millipore
T4 sequence (Q8TF76 1-798): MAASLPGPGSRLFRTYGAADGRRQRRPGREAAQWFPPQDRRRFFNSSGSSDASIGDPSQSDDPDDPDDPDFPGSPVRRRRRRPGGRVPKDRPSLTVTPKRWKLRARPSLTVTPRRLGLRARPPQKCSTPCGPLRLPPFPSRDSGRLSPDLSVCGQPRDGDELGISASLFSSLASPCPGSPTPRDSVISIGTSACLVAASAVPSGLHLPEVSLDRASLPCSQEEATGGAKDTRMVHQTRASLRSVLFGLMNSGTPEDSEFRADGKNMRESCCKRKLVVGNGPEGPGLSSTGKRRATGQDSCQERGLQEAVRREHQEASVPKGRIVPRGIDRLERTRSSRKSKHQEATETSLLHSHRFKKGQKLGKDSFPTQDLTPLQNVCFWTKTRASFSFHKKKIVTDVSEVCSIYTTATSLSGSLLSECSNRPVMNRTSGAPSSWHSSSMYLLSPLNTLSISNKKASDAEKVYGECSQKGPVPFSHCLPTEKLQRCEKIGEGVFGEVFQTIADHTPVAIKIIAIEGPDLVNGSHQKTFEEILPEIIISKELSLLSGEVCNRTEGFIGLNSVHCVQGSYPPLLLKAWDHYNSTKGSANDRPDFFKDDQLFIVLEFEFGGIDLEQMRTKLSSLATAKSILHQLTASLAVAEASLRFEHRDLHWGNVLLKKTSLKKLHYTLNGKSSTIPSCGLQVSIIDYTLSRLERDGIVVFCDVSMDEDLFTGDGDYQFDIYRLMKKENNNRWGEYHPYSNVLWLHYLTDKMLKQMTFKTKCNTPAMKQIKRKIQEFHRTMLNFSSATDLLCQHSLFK
How it was run: as §1

TrkA(h) = TrkA(h) (Homo sapiens, UniProt P04629)
How it was run: as §1

PRK2(h) = biological target: T5, PRK2(h) (Homo sapiens, UniProt Q16513)
T5 construct: purchased Millipore (IC50 Profiler Express service)
T5 sequence (Q16513 whole entry): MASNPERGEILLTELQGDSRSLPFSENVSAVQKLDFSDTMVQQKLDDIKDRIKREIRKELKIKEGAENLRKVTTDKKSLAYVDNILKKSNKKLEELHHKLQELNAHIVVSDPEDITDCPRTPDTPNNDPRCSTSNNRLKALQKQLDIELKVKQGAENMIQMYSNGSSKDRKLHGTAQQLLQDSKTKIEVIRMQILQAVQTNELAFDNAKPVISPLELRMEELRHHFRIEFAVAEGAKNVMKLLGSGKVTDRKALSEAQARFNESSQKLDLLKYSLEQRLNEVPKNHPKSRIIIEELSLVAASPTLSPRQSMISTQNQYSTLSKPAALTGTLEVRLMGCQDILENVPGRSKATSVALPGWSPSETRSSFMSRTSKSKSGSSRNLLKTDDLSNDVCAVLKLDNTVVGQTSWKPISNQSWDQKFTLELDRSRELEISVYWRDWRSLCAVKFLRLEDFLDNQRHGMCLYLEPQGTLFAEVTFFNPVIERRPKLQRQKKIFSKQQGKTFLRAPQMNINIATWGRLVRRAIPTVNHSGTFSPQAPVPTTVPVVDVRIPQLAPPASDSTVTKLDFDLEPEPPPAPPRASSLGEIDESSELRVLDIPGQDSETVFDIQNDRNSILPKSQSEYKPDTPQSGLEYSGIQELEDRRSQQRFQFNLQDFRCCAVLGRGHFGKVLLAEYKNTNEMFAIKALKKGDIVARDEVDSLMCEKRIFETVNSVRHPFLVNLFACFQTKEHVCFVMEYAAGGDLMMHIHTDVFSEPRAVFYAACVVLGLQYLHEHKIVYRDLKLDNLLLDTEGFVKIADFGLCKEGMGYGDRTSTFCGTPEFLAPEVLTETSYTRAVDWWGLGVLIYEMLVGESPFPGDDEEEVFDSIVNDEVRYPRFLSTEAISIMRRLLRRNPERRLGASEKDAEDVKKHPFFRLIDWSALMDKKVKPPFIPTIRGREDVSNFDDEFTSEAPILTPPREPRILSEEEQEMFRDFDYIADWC
How it was run: as §1

MINK(h) = MINK(h) (Homo sapiens, UniProt Q8N4C8)
How it was run: as §1

MEK1(h) = MEK1(h) (Homo sapiens, UniProt Q02750)
How it was run: as §1

MAPK2(h) = MAPK2(h) (Homo sapiens, UniProt P28482)
MAPK2(h), sequence (P28482 whole entry): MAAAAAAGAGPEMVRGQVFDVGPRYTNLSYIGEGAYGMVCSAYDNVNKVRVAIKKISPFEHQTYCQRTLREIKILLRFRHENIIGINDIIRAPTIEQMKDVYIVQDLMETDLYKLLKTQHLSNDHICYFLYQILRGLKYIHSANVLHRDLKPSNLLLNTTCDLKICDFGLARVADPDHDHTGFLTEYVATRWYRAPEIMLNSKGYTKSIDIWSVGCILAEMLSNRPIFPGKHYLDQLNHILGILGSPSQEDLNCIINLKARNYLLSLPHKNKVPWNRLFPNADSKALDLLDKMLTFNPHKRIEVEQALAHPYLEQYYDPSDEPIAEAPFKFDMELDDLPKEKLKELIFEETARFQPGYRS
How it was run: as §1

PDGFRα(h) = PDGFRα(h) (Homo sapiens, UniProt P16234)
PDGFRα(h), sequence (P16234 24-1089): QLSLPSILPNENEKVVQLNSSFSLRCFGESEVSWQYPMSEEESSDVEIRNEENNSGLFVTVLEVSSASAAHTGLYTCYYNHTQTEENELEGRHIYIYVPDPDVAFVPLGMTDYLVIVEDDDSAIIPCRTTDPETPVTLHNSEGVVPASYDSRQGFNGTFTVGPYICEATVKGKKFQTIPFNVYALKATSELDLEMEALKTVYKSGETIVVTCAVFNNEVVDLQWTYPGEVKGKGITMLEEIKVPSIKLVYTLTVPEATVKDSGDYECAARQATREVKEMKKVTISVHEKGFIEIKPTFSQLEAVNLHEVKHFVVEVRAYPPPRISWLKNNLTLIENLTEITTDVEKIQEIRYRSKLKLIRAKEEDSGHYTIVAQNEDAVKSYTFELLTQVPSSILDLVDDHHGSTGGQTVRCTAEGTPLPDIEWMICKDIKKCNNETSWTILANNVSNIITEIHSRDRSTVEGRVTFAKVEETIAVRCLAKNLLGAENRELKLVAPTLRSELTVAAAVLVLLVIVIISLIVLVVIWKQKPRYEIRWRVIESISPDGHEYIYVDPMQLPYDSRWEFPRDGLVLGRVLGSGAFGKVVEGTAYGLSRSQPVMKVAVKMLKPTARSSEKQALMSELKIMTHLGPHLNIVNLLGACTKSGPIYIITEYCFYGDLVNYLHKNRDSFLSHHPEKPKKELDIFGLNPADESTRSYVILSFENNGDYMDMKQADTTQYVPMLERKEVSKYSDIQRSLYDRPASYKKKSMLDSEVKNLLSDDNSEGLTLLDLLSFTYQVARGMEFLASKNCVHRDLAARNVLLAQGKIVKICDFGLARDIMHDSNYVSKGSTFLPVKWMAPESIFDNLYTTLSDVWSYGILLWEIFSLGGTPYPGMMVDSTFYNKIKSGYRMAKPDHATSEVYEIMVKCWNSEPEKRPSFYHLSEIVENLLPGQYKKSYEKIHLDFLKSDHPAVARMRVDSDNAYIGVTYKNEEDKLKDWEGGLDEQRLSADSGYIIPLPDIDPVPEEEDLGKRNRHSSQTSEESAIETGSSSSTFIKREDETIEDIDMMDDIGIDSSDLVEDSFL
How it was run: as §1

GRK7(h) = biological target: T6, GRK7(h) (Homo sapiens, UniProt Q8WTQ7)
T6 construct: purchased Millipore
T6 sequence (Q8WTQ7 1-553): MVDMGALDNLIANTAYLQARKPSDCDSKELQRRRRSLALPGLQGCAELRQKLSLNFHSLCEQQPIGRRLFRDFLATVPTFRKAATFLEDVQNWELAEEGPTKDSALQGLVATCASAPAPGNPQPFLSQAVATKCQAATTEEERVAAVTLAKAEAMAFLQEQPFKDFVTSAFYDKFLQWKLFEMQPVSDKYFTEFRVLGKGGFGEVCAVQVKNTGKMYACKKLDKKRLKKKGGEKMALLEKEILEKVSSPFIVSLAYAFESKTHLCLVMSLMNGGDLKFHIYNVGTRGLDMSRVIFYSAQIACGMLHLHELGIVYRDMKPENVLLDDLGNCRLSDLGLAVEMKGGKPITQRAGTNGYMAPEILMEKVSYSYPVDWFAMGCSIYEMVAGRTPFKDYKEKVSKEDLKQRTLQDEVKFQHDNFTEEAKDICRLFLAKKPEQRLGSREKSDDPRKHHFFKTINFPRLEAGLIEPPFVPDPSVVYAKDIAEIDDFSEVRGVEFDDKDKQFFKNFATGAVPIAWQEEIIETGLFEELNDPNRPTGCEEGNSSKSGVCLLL
How it was run: as §1

ROCK-II(h) = biological target: T7, ROCK-II(h) (Homo sapiens, UniProt O75116)
T7 construct: purchased Millipore (IC50 Profiler Express service)
T7 sequence (O75116 whole entry): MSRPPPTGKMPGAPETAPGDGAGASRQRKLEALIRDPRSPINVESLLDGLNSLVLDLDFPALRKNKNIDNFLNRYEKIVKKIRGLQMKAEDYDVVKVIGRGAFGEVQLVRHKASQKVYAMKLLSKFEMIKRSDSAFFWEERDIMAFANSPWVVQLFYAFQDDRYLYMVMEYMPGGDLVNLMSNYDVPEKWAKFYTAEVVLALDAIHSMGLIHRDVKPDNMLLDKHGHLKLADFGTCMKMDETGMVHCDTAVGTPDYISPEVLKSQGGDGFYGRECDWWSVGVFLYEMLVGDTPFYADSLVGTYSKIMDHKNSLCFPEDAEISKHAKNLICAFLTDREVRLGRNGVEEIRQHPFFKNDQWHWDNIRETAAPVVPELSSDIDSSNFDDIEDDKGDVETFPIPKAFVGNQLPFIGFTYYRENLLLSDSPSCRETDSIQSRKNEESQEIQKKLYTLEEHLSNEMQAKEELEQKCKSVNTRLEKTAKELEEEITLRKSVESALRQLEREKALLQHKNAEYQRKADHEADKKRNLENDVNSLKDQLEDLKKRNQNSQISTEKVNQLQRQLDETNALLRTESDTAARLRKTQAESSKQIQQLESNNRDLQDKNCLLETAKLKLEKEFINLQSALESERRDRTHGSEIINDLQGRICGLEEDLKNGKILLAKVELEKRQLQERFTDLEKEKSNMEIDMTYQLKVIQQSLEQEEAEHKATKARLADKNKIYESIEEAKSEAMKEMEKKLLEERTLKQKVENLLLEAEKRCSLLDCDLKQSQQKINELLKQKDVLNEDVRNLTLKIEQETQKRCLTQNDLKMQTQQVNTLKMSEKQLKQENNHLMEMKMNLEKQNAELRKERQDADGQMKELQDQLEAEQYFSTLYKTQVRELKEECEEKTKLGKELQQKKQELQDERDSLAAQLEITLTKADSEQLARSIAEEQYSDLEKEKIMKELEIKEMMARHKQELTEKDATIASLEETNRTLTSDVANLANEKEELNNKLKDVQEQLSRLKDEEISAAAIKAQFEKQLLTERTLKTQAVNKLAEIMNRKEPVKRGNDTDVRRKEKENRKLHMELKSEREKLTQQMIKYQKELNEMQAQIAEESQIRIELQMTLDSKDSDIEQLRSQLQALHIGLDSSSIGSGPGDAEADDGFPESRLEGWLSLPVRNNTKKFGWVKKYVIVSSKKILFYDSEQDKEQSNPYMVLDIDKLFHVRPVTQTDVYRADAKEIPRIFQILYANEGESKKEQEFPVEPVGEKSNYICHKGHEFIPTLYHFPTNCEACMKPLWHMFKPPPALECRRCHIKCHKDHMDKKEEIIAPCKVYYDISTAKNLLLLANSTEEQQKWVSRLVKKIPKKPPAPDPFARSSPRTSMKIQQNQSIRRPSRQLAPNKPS
How it was run: as §1

ACK1(h) = ACK1(h) (Homo sapiens, UniProt Q07912)
How it was run: as §1

FAK(h) = FAK(h) (Homo sapiens, UniProt Q05397)
How it was run: as §1

T1 sequence (P49841 whole entry): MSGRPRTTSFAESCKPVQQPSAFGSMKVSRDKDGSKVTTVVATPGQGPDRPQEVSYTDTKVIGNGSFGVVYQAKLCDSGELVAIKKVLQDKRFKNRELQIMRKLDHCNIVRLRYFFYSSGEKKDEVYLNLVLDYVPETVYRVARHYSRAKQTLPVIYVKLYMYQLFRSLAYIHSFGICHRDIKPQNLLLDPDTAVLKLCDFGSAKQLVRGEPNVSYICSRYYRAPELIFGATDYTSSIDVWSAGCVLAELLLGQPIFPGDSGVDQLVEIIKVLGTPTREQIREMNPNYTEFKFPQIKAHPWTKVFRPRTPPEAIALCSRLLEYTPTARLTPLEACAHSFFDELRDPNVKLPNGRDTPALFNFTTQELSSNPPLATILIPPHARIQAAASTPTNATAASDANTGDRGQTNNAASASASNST

| Sequence | GSK3β(h) % activity (GSK3β(h)) [%] | CDK2/cyclinE(h) % activity (CDK2/cyclinE(h)) [%] | F1t3(h) % activity (F1t3(h)) [%] | MARK1(h) % activity (MARK1(h)) [%] | CDK9/cyclin T1(h) % activity (CDK9/cyclin T1(h)) [%] | Src(1-530)(h) % activity (Src(1-530)(h)) [%] | Plk3(h) % activity (Plk3(h)) [%] | Haspin(h) % activity (Haspin(h)) [%] | TrkA(h) % activity (TrkA(h)) [%] | PRK2(h) % activity (PRK2(h)) [%] | MINK(h) % activity (MINK(h)) [%] | MEK1(h) % activity (MEK1(h)) [%] | MAPK2(h) % activity (MAPK2(h)) [%] | PDGFRα(h) % activity (PDGFRα(h)) [%] | GRK7(h) % activity (GRK7(h)) [%] | ROCK-II(h) % activity (ROCK-II(h)) [%] | ACK1(h) % activity (ACK1(h)) [%] | FAK(h) % activity (FAK(h)) [%] |
| --- | --- | --- | --- | --- | --- | --- | --- | --- | --- | --- | --- | --- | --- | --- | --- | --- | --- | --- |
| FAKLAARLYRKALARQLGVAA [MMI-0300] | 205 | 94 | 84 | 132 | 91 | 23 | 127 | 48 | 25 | 33 | 48 | 77 | 98 | 65 | 122 | 74 | – | – |
| HRRIKAWLKKIKALARQLGVAA (Mammalian) [MMI-0500] | 238 | 19 | 17 | 110 | 6 | 21 | 122 | 25 | 24 | 7 | 5 | 21 | 60 | 40 | 93 | 2 | 64 | 94 |
| KAFAKLAARLYRKALARQLGVAA [MMI-0400] | 202 | 83 | 18 | 120 | 235 | 19 | 129 | 36 | 17 | 27 | 52 | 77 | 93 | 40 | 100 | 77 | 95 | 96 |
| YARAAARQARAKALNRQLGVA (Mammalian) [MMI-0200] | 132 | – | 99 | – | – | 75 | – | 71 | – | 74 | – | – | – | 108 | 124 | 85 | 97 | 110 |

Source: patent US10562947B2, “Compositions and methods for preventing or treating diseases, conditions or processes characterized by aberrant fibroblast proliferation and extracellular matrix deposition” (MOERAE MATRIX, INC., priority 2011, dated 2020)
